Data reported in paper PMC7878476, “Regulatory inter-domain interactions influence Hsp70 recruitment to the DnaJB8 chaperone” (Nature Communications, 2021).
Values joined by “and” are separate entries in the source; they are usually repeats but may differ in a detail not shown here. Identical values can stand only once.

B1: DnaJB8–mClover3 fusion protein (natural protein, human, UniProt Q8NHS0 1-232, looked up)
chain: MANYYEVLGVQASASPEDIKKAYRKLALRWHPDKNPDNKEEAEKKFKLVSEAYEVLSDSKKRSLYDRAGCDSWRAGGGASTPYHSPFDTGYTFRNPEDIFREFFGGLDPFSFEFWDSPFNSDRGGRGHGLRGAFSAGFGEFPAFMEAFSSFNMLGCSGGSHTTFSSTSFGGSSSGSSGFKSVMSSTEMINGHKVTTKRIVENGQERVEVEEDGQLKSVTVNGKEQLKWMDSK
notes: also called DnaJB8–Clover; source: HEK293T polyclonal lentiviral cell line, isolated from lysate with His-tagged anti-GFP nanobody on Ni-NTA resin
B2: recombinant full-length DnaJB8 (wild type) (natural protein, human, UniProt Q8NHS0 1-232, looked up)
chain: B1 chain
notes: pET-29b; no tag removal is described; also called WT DnaJB8; source: E. coli BL-21 (DE3), purified from the insoluble fraction (8 M guanidinium HCl, Ni-NTA), dialysed, lyophilised
B3: FITC-labeled JD_(1–82) of DnaJB8 (domain or fragment, human, UniProt Q8NHS0 1-82, looked up)
chain: MANYYEVLGVQASASPEDIKKAYRKLALRWHPDKNPDNKEEAEKKFKLVSEAYEVLSDSKKRSLYDRAGCDSWRAGGGASTP
modifications: FITC (labeled with 10× FITC-maleimide; site not stated)
notes: DnaJB8, human, J-domain, residues 1-82; Same construct as m4, with the fluorescein label; also called JD_(1–82)-FITC; JD_(1–82)–FITC; source: E. coli BL-21 (DE3), purified (TALON, Superdex 200), labeled with FITC-maleimide, excess dye removed by Superdex 75
B4: isolated C-terminal domain of DnaJB8, CTD_(170–232) (domain or fragment, human, UniProt Q8NHS0 170-232, looked up)
chain: GGSSSGSSGFKSVMSSTEMINGHKVTTKRIVENGQERVEVEEDGQLKSVTVNGKEQLKWMDSK
notes: source: E. coli BL-21 (DE3), purified (TALON, Superdex 200)

Assays:
[1] = target: the molecule itself; assay: cross-linking; DnaJB8–Clover held on anti-GFP nanobody/Ni-NTA beads, 1× PBS, 57 mM ADH + 36 mM DMTMM, 1 min at 37 °C; eluate analysed by MS and western blot
[2] = target: the molecule itself; assay: dynamic light scattering; 1.2 mg/mL in 1× PBS, 1 mM DTT, pH 7.4, room temperature, time course over about 20 h; 150 mM or 285 mM NaCl for full-length DnaJB8
human Hsp70 (HspA1A) = target: T1, human Hsp70 (HspA1A) (human, UniProt P0DMV8 1-641); assay: fluorescence polarisation; 0.2 μM FITC-JD_(1–82) with a titration of Hsp70 or CTD_(170–232) (150–0 μM) in 1× PBS, 1 mM TCEP, pH 7.4; one site-specific binding fit; details: both partners purified
T1 construct: HspA1A (Hsp70), human; HspA1A gene cloned into pMCSG7; no tag cleavage is described; source: E. coli BL-21 (DE3), purified (TALON, HiTrap Q anion exchange, Superdex 200)
T1 sequence (P0DMV8 whole entry): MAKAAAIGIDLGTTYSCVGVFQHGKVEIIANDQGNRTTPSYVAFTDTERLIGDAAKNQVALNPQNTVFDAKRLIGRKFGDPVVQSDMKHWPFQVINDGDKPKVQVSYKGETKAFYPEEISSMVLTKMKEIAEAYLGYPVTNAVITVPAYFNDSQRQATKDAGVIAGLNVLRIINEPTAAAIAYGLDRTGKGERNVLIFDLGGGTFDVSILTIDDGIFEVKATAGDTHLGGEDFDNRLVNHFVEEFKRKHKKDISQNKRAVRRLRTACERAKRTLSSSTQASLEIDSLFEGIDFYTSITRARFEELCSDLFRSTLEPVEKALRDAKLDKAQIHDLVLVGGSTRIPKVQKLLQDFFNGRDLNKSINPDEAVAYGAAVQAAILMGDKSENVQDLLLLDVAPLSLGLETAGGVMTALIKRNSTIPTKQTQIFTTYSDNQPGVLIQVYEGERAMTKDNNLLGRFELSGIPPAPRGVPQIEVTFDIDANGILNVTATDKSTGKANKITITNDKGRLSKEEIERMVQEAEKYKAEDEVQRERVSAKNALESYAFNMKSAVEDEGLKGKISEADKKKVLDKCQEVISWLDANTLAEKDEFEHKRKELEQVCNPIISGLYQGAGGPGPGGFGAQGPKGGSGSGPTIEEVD

[3] = target: B3; assay: as above; details: both partners purified

B1
binding result [1]: binds

B2
binding result [2]: binds

B3
Kd (human Hsp70 (HspA1A)): 0.413 ± 0.057 µM

B4
Kd [3]: 4.4 µM and 6.21 µM and 4.43 µM
